25 sequences from the DeepSol protein solubility set can be followed below.

The nature of this data set: soluble on expression in E. coli; label from the status in PepcDB or PDB records.
Turning to “MGHHHHHHHHHHSSGHIDDDDKHMVGATVAPSSRRDFTFDLYRALASAAPSQNIFFSPVSISMSLAMLSLGAGSSTKMQILEGLGLNLQKSSEKELHRGFQQLLQELNQPRDGFQLSLGNALFTDLVVDLQDTFVSAMKTLYLADTFPTNFRDSAGAMKQINDYVAKQTKGKIVDLLKNLDSNAVVIMVNYIFFKAKWETSFNHKGTQEQDFYVTSETVVRVPMMSREDQYHYLLDRNLSCRVVGVPYQGNATALFILPSEGKMQQVENGLSEKTLRKWLKMFKKRQLELYLPKFSIEGSYQLEKVLPSLGISNVFTSHADLSGISNHSNIQVSEMVHKAVVEVDESGTRAAAATGTIFTFRSARLNSQRLVFNRPFLMFIVDNNILFLGKVNRP”, the “soluble on expression in E. coli” value is “soluble”.
Under “MGHHHHHHHHHHSSGHIEGRHIGSGVEAPEQLEEHGISVYATIPMSEWLDKRTRLRKKNLFSNQQRHRTKNIPFLAVDNPADSAVEAVRALRTSLHFAMMETENNILMITGATPDSGKTFVSSTLAAVIAQSDQKVLFIDADLRRGYSHNLFTVSNEHGLSEYLAGKDELNKVIQHFGKGGFDVITRGQVPPNPSELLMRDRMRQLLEWANDHYDLVIVDTPPMLAVSDAAVVGRSVGTSLLVARFGLNTAKEVSLSMQRLEQAGVNIKGAILNGVIKRASTAYSYGYNYYGYSYSEKE” stands “soluble”.
For “MGHHHHHHSHAPALGGQQSVSNKLLAWSGVLEWQEKPKPASVDANTKLTRSLPCQVYVNHGENLKTEQWPQKLIMQLIPQQLLTTLGPLFRNSRMVQFHFTNKDLESLKGLYRIMGNGFAGCVHFPHTAPCEVRVLMLLYSSKKKIFMGLIPYDQSGFVNGIRQVITNHKQVQQQKLEQQQRGMGGQQAPPGLGPILEDQARPSQNLLQLRPPQPQPQ” the value was “not soluble”; for “MGHHHHHHSHDGQLFCKKDYWARYGESCHGCSEQITKGLVMVAGELKYHPECFICLTCGTFIGDGDTYTLVEHSKLYCGHCYYQTVVTPVIEQILPDSPGSHLPHTVTLVSIPASSHGKRGLSVSIDPPHGPPGCGTEHSHTVRVQGVDPGCMSPDVKNSIHVGDRILEINGTPIRNVPLDEIDLLIQETSRLLQLTLEHDP”, “not soluble”.
For “MGHHHHHHSHGFYTIKEAERGVVTRFGKFSHLVEPGLNWKPTFIDEVKPVNVEAVRELAASGVMLTSDENVVRVEMNVQYRVTNPEKYLYSVTSPDDSLRQATDSALRGVIGKYTMDRILTEGRTVIRSDTQRELEETIRPYDMGITLLDVNFQAARPPEEVKAAFDDAIAARENEQQYIREAEA”, the “soluble on expression in E. coli” value was “soluble”.
Under “MGHHHHHHSHLPTTNIGSFPQTTEIRHARASFKKGELSLADYEAAMKKEIEYVVRRQEELDLDVLVHGEAERNDMVEYFGELLDGFAFTKFGWVQSYGSRCVKPPVIYGDVTRPEPMTVRWSQYAQSLTNRVMKGMLTGPVTILQWSFVRNDIPRSTVCKQIGVALSDEVLDLEAAGIKVIQIDEPAIREGLPLKRADWDAYLQWAGEAFRLSSMGVQDDTQIHTHMCYSEFNDILPAIAALDADVITIETSRSDMELLTAFADFKYPNDIGPGVYDIHSPRVPTATEVEHLLRKALNVIPKERLWVNPDCGLKTRGWTETIDQLKVMVDVTKK” stands “not soluble”; under “MGHHHHHHSHLTVQFVPSQNAGTLEAKAKPLEKLLSKELGIPVKVSVSTNYNTIVEAMKSKKVDVGFLPPTAYTLAHDQKAADLLLQAQRFGVKEDGSASKELVDSYKSEILVKKDSKIKSLKDLKGKKIALQDVTSTAGYTFPLAMLKNEAGINATKDMKIVNVKGHDQAVISLLNGDVDAAAVFNDARNTVKKDQPNVFKDTRILKLTQAIPNDTISVRPDMDKDFQEKLKKAFIDIAKSKEGHKIISEVYSH”, “not soluble”.
With “MGHHHHHHSHMAAMLNFNLQQLCGPKCRDLKVENPEKYGFEPKKLLDQLTDIYLQLDCARFAKAIADDQRSYSKELFEEVISKMRKAGIKSTIAIEKFKLLAEKVEEIVAKNARAEIDYSDAPDEFRDPLMDTLMTDPVRLPSGTIMDRSIILRHLLNSPTDPFNRQTLTESMLEPVPELKEQIQAWMREKQNSDH”, the “soluble on expression in E. coli” value was “soluble”.
Under “MGHHHHHHSHMAFPGQSDTKMQWPEVPALPLLSSLCMAMVRKSSALGKEVGRRVKEMVMLVAPFRQSSSLSRTFSSRKVVKAHASLHGARLSPLSRNIRG” stands “not soluble”; under “MGHHHHHHSHMALAARLLPQFLHSRSLPCGAVRLRTPAVAEVRLPSATLCYFCRCRLGLGAALFPRSARALAASALPAQGSRWPVLSSPGLPAAFASFPACPQRSYSTEEKPQQHQKTKMIVLGFSNPINWVRTRIKAFLIWAYFDKEFSITEFSEGAKQAFAHVSKLLSQCKFDLLEELVAKEVLHALKEKVTSLPDNHKNALAANIDEIVFTSTGGISIYYDEKGRKFVNILMCFWYLTSANIPSETLRGASVFQVKLGNQNVETKQLLSASYEFQREFTQGVKPDWTIARIEHSKLLE”, “not soluble”; under “MGHHHHHHSHMANSMANSLSSTQTDYRLSDDLLGPVLAILDAYIDPYLAKGLVSAGCVNKLAIEGKRLQLGLVYPYPCMTQYRDTVMALTNKLAVLDAIDEVECEIDFQPKVYSAIASIAPIANVKQVIAVASGKGGVGKSTTAVNLALALAAEGAQVGILDADIYGPSVPLMLGIPNFRPVSPDGKHMTAASAYGIAAQSIGFMLSGDEAAVWRGPMAAGALAQLLNETQWPELDYLVVDMPPGTGDIQLTLSQKVPVSGAVIVTTPQDIALADAKKGITMFQKVNIPVLGIVENMSFHLCPECGHKEHPFGTHGGSKMAERYQVPLLGALPLHINIREAMDVGAPTVVAEPDSEVAALYREIARKVGAELALKQSQKTVSISVSDDE”, “not soluble”.
Turning to “MGHHHHHHSHMASATQSVSRLQSIVAGLKNAPSDQLINIFESCVRNPVENIMKILKGIGETFCQHYTQSTDEQPGSHIDFAVNRLKLAEILYYKILETVMVQETRRLHGMDMSVLLEQDIFHRSLMACCLEIVLFAYSSPRTFPWIIEVLNLQPFYFYKVIEVVIRSEEGLSRDMVKHLNSIEEQILESLAWSHDS”, the “soluble on expression in E. coli” value is “not soluble”.
“MGHHHHHHSHMASGSNWLSGVNVVLVMAYGSLDLKEEIDIRLSRVQDIKYEPQLLADDDARLLQLETQGNQKIPFHSEGRHPRSLMGKNFRSYLLDLRNTSTPFKGVRKALIDTLLDGYETARYGTGVFGQNEYLRYQEALSELATAVKARIGSSQRHHQSAAKDLTQSPEVSPTTIQVTYLPSSQKSKRAKHFLELKSFKDNYNTLESTL”: the “soluble on expression in E. coli” value was “not soluble”.
In the case of “MGHHHHHHSHMATASPSVFLLMVNGQVESAQFPEYDDLYCKYCFVYGQDWAPTAGLEEGISQITSKSQDVRQALVWNFPIDVTFKSTNPYGWPQIVLSVYGPDVFGNDVVRGYGAVHVPFSPGRHKRTIPMFVPESTSKLQKFTSLCLVASSDLQAAPPTEDK”, the “soluble on expression in E. coli” value is “not soluble”.
Under “MGHHHHHHSHMFPQAQESPAAVEVLTQVVHPSAAMASQERAQVAFKKMVQGVLQFAVCDTAAAGQLVKDGVTQVVVSEEGAVHMVAGEGAQIIMQEAQGEHMDLVESDGEISQIIVTEELVQAMVQESSGGFSEGTTHYILTELPPGVQGEPGLYSHTVLETADSQELLQAGATLGTEAGAPSRAEQLASVVIYTQEGSSAAAAIQSQRESSELQEA” stands “not soluble”; under “MGHHHHHHSHMGEGQIPPAHDSSIFISCDVLLKKISINTRTWLPCSISCSASLLENSPFYFTLFVCDYISHSFHLLINIFSEIMSYHGNGGYNAPYGGHGGYAPPPVHGAPGYMPPTVVHTDGGHHGHVDTHHHEESHHGEHHGGHHGVQHYESHHESHHHGGHHGHH”, “not soluble”.
With “MGHHHHHHSHMGEIESYCNKELGPLPTKAPTLSKNVLDLFSLKGKVASVTGSSGGIGWAVAEAYAQAGADVAIWYNSHPADEKAEHLQKTYGVHSKAYKCNISDPKSVEETISQQEKDFGTIDVFVANAGVTWTQGPEIDVDNYDSWNKIISVDLNGVYYCSHNIGKIFKKNGKGSLIITSSISGKIVNIPQLQAPYNTAKAACTHLAKSLAIEWAPFARVNTISPGYIDTDITDFASKDMKAKWWQLTPLGREGLTQELVGGYLYLASNASTFTTGSDVVIDGGYTCP”, the “soluble on expression in E. coli” value is reported as “not soluble”.
As for “MGHHHHHHSHMGKITFYEDRAFQGRSYETTTDCPNLQPYFSRCNSIRVESGCWMLYERPNYQGQQYLLRRGEYPDYQQWMGLSDSIRSCCLIPQTVSHRLRLYEREDHKGLMMELSEDCPSIQDRFHLSEIRSLHVLEGCWVLYELPNYRGRQYLLRPQEYRRCQDWGAMDAKAGSLRRVVDLY”, the “soluble on expression in E. coli” value is on record as “soluble”.
For “MGHHHHHHSHMGNNSESKGSASDSKGAETFTYKAENGNVKIPKHPKRVVVMADGYYGYFKTLGINVVGAPENVFKNPYYKGKTNGVENIGDGTSVEKVIDLNPDLIIVWTTQGADIKKLEKIAPTVAVKYDKLDNIEQLKEFAKMTGTEDKAEKWLAKWDKKVAAAKTKIKKAVGDKTISIMQTNGKDIYVFGKDFGRGGSIIYKDLGLQATKLTKEKAIDQGPGYTSISLEKLPDFAGDYIFAGPWQSGGDDGGVFESSIWKNLNAVKNGHVYKMDPIGFYFTDPISLEGQLEFITESLTK” the value was “soluble”; for “MGHHHHHHSHMHAPLSLLKQMLKEHQIDTEKAVTFEEYIAMRLKLQELMGKFASIGEWDLYQKAADLMMHIGIQWMK”, “not soluble”.
Under “MGHHHHHHSHMHPWNQQVPDKESGGGSHGNAASSCSRFHYSYAGVHSESTHFSLVLLLDWAMAFILCPLTCPGECEGSTGKLECCLCLPSQWAVLTAAPHPYRWSQEAGRVGEGKIGKTGRPRPRQNSLPSLHFWSPVVMCL” stands “not soluble”.
For “MGHHHHHHSHMIKRSSECNPLLQEPIASAQFGATAGTECRKSVPCGWERVVKQRLFGKTAGRFDVYFISPQGLKFRSKSSLANYLHKNGETSLKPEDFDFTVLSKRGIKSRYKDCSMAALTSHLQNQSNNSNWNLRTRSKCKKDVFMP” the value was “soluble”.
Turning to “MGHHHHHHSHMKPLIWTWSDVEGQRPALLICTAAAGPTQGVKGYGKPFEPRSVKNIHSTPAYPDATMHRQLLAPVEGRMAETLNQKLHVANVLEDDPGYLPHVYSEEGECGGAPSLSSLASLEQELQPDLLDSLGSKATPFEEIYSESGVPS”, the “soluble on expression in E. coli” value is “not soluble”.
“MGHHHHHHSHMLVLRSGLTKALASRTLAPQVCSSFATGPRQYDGTFYEFRTYYLKPSNMNAFMENLKKNIHLRTSYSELVGFWSVEFGGRTNKVFHIWKYDNFAHRAEVRKALANCKEWQEQSIIPNLARIDKQETEITYLIPWSKLEKPPKEGVYELAVFQMKPGGPALWGDAFERAINAHVNLGYTKVVGVFHTEYGELNRVHVLWWNESADSRAAGRHKSHEDPRVVAAVRESVNYLVSQQNMLLIPASFSPLK”: the “soluble on expression in E. coli” value is on record as “not soluble”.
For “MGHHHHHHSHMMEGLDDGPDFLSEEDRGLKAINVDLQSDAALQVDISDALSERDKVKFTVHTKSSLPNFKQNEFSVVRQHEEFIWLHDSFVENEDYAGYIIPPAPPRPDFDASREKLQKLGEGEGSMTKEEFTKMKQELEAEYLAIFKKTVAMHEVFLCRVAAHPILRRDLNFHVFLEYNQDLSVRGK” the value was “not soluble”.
